Patent US20230146533A1, “KERATIN BD-10, PREPARATION METHOD THEREFOR AND PHARMACEUTICAL COMPOSITION AND USE THEREOF” (INSTITUTE OF MATERIA MEDICA, CHINESE ACADEMY OF MEDICAL …, priority 2019, published 2023)

Columns and labels:
[1] = test system: lipopolysaccharide (LPS) induced fever in SD rats; test: Lipopolysaccharide (LPS) induced fever model in SD rats; assay type: in vivo; details: for Body temperature 2 hours after modeling / Body temperature 4 hours after modeling / Body temperature 6 hours after modeling / Body temperature 8 hours after modeling: LPS 20 μg/kg i.p., SD rats
Description: Animals: 230-260 grams of male SD rats; Drugs: lipopolysaccharide (LPS, SIGMA L-2880), aspirin (SIGMA A2093), protein BD-10; Instruments: electronic balance (SARTORIUS BP121S type), electronic clinical thermometer (CITIZEN CT-513W type).
Method: the method of intraperitoneal injection of Lipopolysaccharide to replicate rat fever model.
(§1) Preparation of experimental animals: After the experimental animals adapt to the experimental environment (temperature 22° C.±2° C., relative humidity 50%±2%) for 1 day. Pre-adaptation to measure rectal temperature at 8:00 and 15:00, rats were fasted and water was taken freely 12 h before experiment, and let the animal to empty its feces before measuring the rectal temperature. Apply petroleum jelly to the electronic thermometer probe before each temperature measurement. Insert the rat rectum 2 cm (can be marked at 2 cm to ensure that the depth of each insertion is consistent), and record the body temperature after the reading is stable.
Intraperitoneal injection of lipopolysaccharide to replicate rat fever model: The body temperature of the rats was measured before modeling. Qualified rats with a body temperature of 36.2-37.3° C. were selected and randomly divided into groups with 8 rats in each group. After oral administration of aspirin and different doses of protein BD-10, lipopolysaccharide (20 μg/kg, 2 ml/kg) was injected intraperitoneally immediately, and the normal control group was injected intraperitoneally with an equal volume of normal saline. The body temperatures of the rats were monitored after 2 hours for a total of 8 hours.
(§2) According to the body temperature measured at each time point on the day of the experiment, calculate the mean, standard deviation and standard error of the body temperature of each group of rats. The data of each group was compared with TTEST, and P<0.05 was considered as a significant difference.

[2] = test system: yeast-induced fever model in rats; test: Yeast-induced fever model in SD rats; assay type: in vivo; details: for Body temperature 2 hours after modeling / Body temperature 4 hours after modeling / Body temperature 6 hours after modeling / Body temperature 8 hours after modeling: 20% yeast suspension 10 ml/kg s.c., SD rats
Description: Animals: 230-260 grams of male SD rats; Medicines: yeast (OXOID LP0021), aspirin (SIGMA A2093), protein BD-10; Instruments: electronic balance (SARTORIUS BP121S type), electronic clinical thermometer (CITIZEN CT-513W type). Experiment grouping: • Normal control group; • Model group: yeast fever model; • Positive control group: Aspirin 300 mg/kg group; • Protein BD-10, 10 mg/kg group, 50 mg/kg group.
as §1
Subcutaneous injection of dry yeast to replicate rat fever model: The body temperature of the rats was measured before modeling. Qualified rats with a body temperature of 36.2-37.3° C. were selected and randomly divided into groups with 8 rats in each group. After oral administration of aspirin and different doses of protein BD-10, 20% yeast suspension (10 ml/kg) was injected subcutaneously immediately, and the normal control group was injected intraperitoneally with an equal volume of normal saline. The body temperatures of the rats were monitored after 2 hours for a total of 8 hours.
as §2

[3] = test system: PTZ-induced epilepsy in mice; test: Pentylenetetrazole (PTZ) induced epilepsy in mice; assay type: in vivo, ICR mice; details: for Grade IV seizure rate / mortality rate / Grade III seizure incubation period / Grade IV seizure incubation period / Cases of deaths / Cases of Grade IV: PTZ 65 mg/kg i.p.; for Grade IV seizure rate / mortality rate: 10 mice; for Grade III seizure incubation period / Grade IV seizure incubation period: mean ± SEM; for Grade IV seizure incubation period: mice not reaching Grade IV recorded as maximum 900 seconds; for Cases of deaths / Cases of Grade IV: of 10 mice; for Cases of Grade IV: 15 minutes observation
Description: Medicines: Pentylenetetrazol (PTZ), Retigabine, Protein BD-10.
Experiment grouping: • Model group; • Retigabine 60 mg/kg group; • Protein BD-10, 50 mg/kg group, 200 mg/kg group;
The drug was administered once in the afternoon the day before modeling, On the day of modeling, PTZ-65 mg/kg (modeling agent) was injected intraperitoneal 1 hour after the test drug was administered intragastrically, and the positive drug can be administered once half an hour before modeling. Continue to observe for 15 minutes after injection of PTZ.
Observation index: (1)Seizure situation: the time of seizures from Grade III to Grade VI; (2)Death situation
Seizure grade: Refer to Racine grading standard: Grade 0: No response; Grade I: manifested as twitching of facial muscles or the corners of the mouth; Grade II: can nod; Grade III: twitching of one limb; Grade IV: rigidity or body twitching; Grade V: generalized epilepsy (generalized tonic seizures).
Count the cases of seizures and deaths in each group of mice in the experiment; Grade III and IV incubation period. The incubation period of mice that have not attacked to Grade IV is recorded as the maximum of 900 seconds. Chi-square test was used for statistics of the number of cases. Calculate the mean and standard error of the incubation period. Use TTEST to compare the model group with other groups, and P<0.05 is considered as a significant difference.

[4] = test system: acetic acid writhing of ICR mice; test: Acetic acid writhing test in ICR mice; assay type: in vivo; details: for Frequency of writhing / Writhing incubation period: observed within 15 minutes
Description: Animals: male ICR mice; Drugs and reagents: aspirin, physiological saline, glacial acetic acid, protein BD-10. Experiment grouping: • Model group; • Aspirin 300 mg/kg group; • Protein BD-10, 50 mg/kg group, 200 mg/kg group.
One day after the experimental animals adapt to the environment, Aspirin 300 mg/kg, protein BD-10 50 mg/kg, 200 mg/kg were given orally one hour in advance, and the administration volume was 10 ml/kg; Then, 0.6% acetic acid solution was injected intraperitoneally, and the incubation period (seconds) and frequency of writhing in the animal was observed within 15 minutes.
Calculate the mean and standard error of the data in each group. Compared with the model group by TTEST, P<0.05 was considered as statistically different.

[5] = BD-10 50 mg/kg oral one hour before 0.6% acetic acid i.p.
[6] = BD-10 200 mg/kg oral one hour before 0.6% acetic acid i.p.

B1: BD-10: recombinant keratin with amino acid sequence SEQ ID NO:1, expressed in E. coli inclusion bodies, band around 55 kD (protein, listed as Bos taurus)
chain: MSCRSYRISPGYSVTRTFSSCSAVAPKTGSRCCITAAPYRGVSCYRGLTGFGSRSVSALGSCGPRIAVGGFRAGSCNRSFGYRSGGVGGLSPPCITTVSVNESLLTPLNLEIDPNAQCVKHEEKEQIKNLNSRFAAFIDKVRFLEQQNKLLETKWQFYQNQRCCESNLEPLFNGYIETLRREAEHVEADGGRLASELNHVQEVLEGYKKKYEEEVALRATAENEFVVLKKDVDCAYLRKSDLEANVEALVEESNFLKRLYDEEIQILNAHISDTSVIVKMDNSRDLNMDCVVAEIKAQYDDIASRSRAEAESWYRNKCEEMKATVIRHGETLRRTKEEINELNRIIQRLTAEIENAKCQRTKLEAAVAEAEQQGEAALNDARCKLAGLEEALQKAKQDMACLLKEYQEVMNSKLGLDIEIATYRRLLEGEEQRLCEGVGSVNVCVSSSRGGVTCGGLTYSTTAGRQIASGPVATGGSITVLAPDSCVPCQPRASSFSCGSSRSVRFA
Effect on body temperature of model rats (in words) ([1]; BD-10 10 mg/kg dose group, 2 hours after modeling, vs model group P<0.05): can significantly reduce the body temperature
Body temperature 2 hours after modeling ([1]; BD-10 10 mg/kg oral): 37.3 ± 0.1 °C
Body temperature 4 hours after modeling ([1]; BD-10 10 mg/kg oral): 37.8 ± 0.1 °C
Body temperature 6 hours after modeling ([1]; BD-10 10 mg/kg oral): 37.8 ± 0.1 °C
Body temperature 8 hours after modeling ([1]; BD-10 10 mg/kg oral): 37.6 ± 0.1 °C
Body temperature 2 hours after modeling ([1]; BD-10 50 mg/kg oral): 37.3 ± 0.2 °C
Body temperature 4 hours after modeling ([1]; BD-10 50 mg/kg oral): 37.7 ± 0.2 °C
Body temperature 6 hours after modeling ([1]; BD-10 50 mg/kg oral): 37.9 ± 0.2 °C
Body temperature 8 hours after modeling ([1]; BD-10 50 mg/kg oral): 37.6 ± 0.1 °C
Effect on body temperature rise (in words, summary) ([1]; BD-10, dose not stated, 2 hours after modeling): has a significant effect of reducing body temperature rise
Body temperature 2 hours after modeling ([2]; BD-10 10 mg/kg oral): 36.8 ± 0.05 °C
Body temperature 4 hours after modeling ([2]; BD-10 10 mg/kg oral): 37.2 ± 0.1 °C
Body temperature 6 hours after modeling ([2]; BD-10 10 mg/kg oral): 37.4 ± 0.1 °C
Body temperature 8 hours after modeling ([2]; BD-10 10 mg/kg oral): 37.5 ± 0.1 °C
Body temperature 2 hours after modeling ([2]; BD-10 50 mg/kg oral): 37.0 ± 0.1 °C
Body temperature 4 hours after modeling ([2]; BD-10 50 mg/kg oral): 37.4 ± 0.04 °C
Body temperature 6 hours after modeling ([2]; BD-10 50 mg/kg oral): 37.4 ± 0.01 °C
Body temperature 8 hours after modeling ([2]; BD-10 50 mg/kg oral): 37.4 ± 0.09 °C
Effect on increase in body temperature (in words, summary) ([2]; BD-10, dose not stated, 2, 4, 6 and 8 hours after modeling): can significantly inhibit the increase in body temperature
Effect on body temperature of model rats (in words) ([2]; different doses of BD-10 (10, 50 mg/kg), most time points after modeling, vs model group P<0.05): can inhibit the increase in body temperature of model rats to varying degrees
Grade IV seizure rate ([3]; BD-10 50 mg/kg intragastric): 80%
mortality rate ([3]; BD-10 50 mg/kg intragastric): 0%
Grade III seizure incubation period ([3]; BD-10 50 mg/kg intragastric): 63 ± 2 s
Grade IV seizure incubation period ([3]; BD-10 50 mg/kg intragastric): 296 ± 106 s
Cases of deaths ([3]; BD-10 50 mg/kg intragastric): 0
Cases of Grade IV ([3]; BD-10 50 mg/kg intragastric): 8
Grade IV seizure rate ([3]; BD-10 200 mg/kg intragastric): 70%
mortality rate ([3]; BD-10 200 mg/kg intragastric): 0%
Grade III seizure incubation period ([3]; BD-10 200 mg/kg intragastric): 81 ± 9 s
Grade IV seizure incubation period ([3]; BD-10 200 mg/kg intragastric): 359 ± 120 s
Cases of deaths ([3]; BD-10 200 mg/kg intragastric): 0
Cases of Grade IV ([3]; BD-10 200 mg/kg intragastric): 7
Effect on incubation period of Grade IV epilepsy (in words) ([3]; BD-10, PTZ model, no statistical difference compared with the model group): has a tendency to extend the incubation period
Effect on writhing (in words) ([4]; BD-10 50 mg/kg and 200 mg/kg dose groups, vs model group P<0.05): can significantly reduce the number of writhing mice
Frequency of writhing [4, 5]: 22.7 ± 3.9 times
Writhing incubation period [4, 5]: 237.4 ± 44.8 s
Frequency of writhing [4, 6]: 19.8 ± 3.7 times
Writhing incubation period [4, 6]: 251.2 ± 43.3 s
Effect on number of writhing times (in words, summary) ([4]; BD-10, dose not stated): can significantly reduce the number of writhing times
